Kd, koff and kon data for one molecule are collected here from publication PMC11806408.

For this assay, the target named is N‐10/C‐9 fusion PD (human). The assay can be described thus: SPR; PDs of BMP‐9, BMP‐10 and N‐10/C‐9 fusion PD immobilised at 450 RUs on a CM5 chip by amine coupling; BMP‐10 GF 0 to 80 nM, 1:2 serial dilutions, 1× HBS‐EP; 1:1 model with mass transfer; apparent KD = kd/ka. On the technique in general: Surface plasmon resonance follows binding to a sensor surface in real time, without labels.

B1: BMP‐10 GF (R&D Systems #2926‐BP‐025/CF) (ligand)
chain: NAKGNYCKRTPLYIDFKEIGWDSWIIAPPGYEAYECRGVCNYPLAEHLTPTKHAIIQALVHLKNSQKASKACCVPTKLEPISILYLDKGVVTYKFKYEGMAVSECGCR
With B1, the Kd is 13.2 nM, the koff (commonly the rate constant with which the complex falls apart) was found to be 0.0032 s⁻¹ and the kon (commonly the rate constant with which the complex forms) was determined as 220000 M⁻¹ s⁻¹.
